According to patent US20160158359A1:

Tests used:
[1] = target: recombinant HLA-A*03:01 MHC class I molecule (human); test: REVEAL MHC-peptide binding assay, stabilisation of ternary complex with recombinant MHC; conditions: remark: other sources report otherwise; scale: score, % of positive control peptide
[2] = target: recombinant HLA-A*02:01 MHC class I molecule (human); test: as above; conditions: remark: other sources report otherwise; scale: score, % of positive control peptide
[3] = target: HLA-A*03:01 recombinant MHC class I molecule (human); test: REVEAL MHC-peptide complex stabilisation assay, recombinant HLA-A*03:01; conditions: remark: other sources report otherwise
[4] = target: HLA-B*08:01 recombinant MHC class I molecule (human); test: REVEAL MHC-peptide binding assay, stabilisation of ternary MHC-peptide complex, recombinant HLA; conditions: remark: other sources report otherwise; scale: % of positive control peptide
[5] = target: HLA-A*11:01 recombinant MHC class I molecule (human); test: as above; conditions: remark: other sources report otherwise; scale: % of positive control peptide

Question: How did the In Vitro Score [1] turn out when VAFIIFWVR [… synthetic 9-mer peptide (overlapping reference peptide 1, K29R)] was run?
Answer: The In Vitro Score was 0.7.

Question: What about the In Vitro Score [2] of the same binder?
Answer: Its In Vitro Score is 1.2.

Question: IFWVQRGAK […] was tested. Which In Vitro Score (% of positive control peptide) [3] did it give?
Answer: Its In Vitro Score (% of positive control peptide) is 7.

Question: What does the source list for VAFIIFWVR?
Answer: In Vitro Score [4]: 0.1; In Vitro Score [5]: 34.6
